Consider 80 sequences from the supplement of paper PMC10724198.

± gives the standard deviation of the averaged measurements.
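Note: PSI is a weighted mean of sequencing reads over stability bins, variants kept only with over 10 reads, mCherry proximal and sfGFP distal, peptide attached via GGGS linker.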

The data set has as its system Saccharomyces cerevisiae. The data set is described as follows: protein stability index of tFT-peptide fusion (C-terminal peptide) (PSI (0-1 scale)); higher = more stable (slower turnover). Particulars: genetic background: wild type; temperature: 30 C.
The sequence STFQVHSLPISP registered a protein stability index of 0.702 ± 0.031.
STGMYFYTHYLL displayed a protein stability index of 0.632 ± 0.024.
In turn, STHTASAIQWST gave a protein stability index of 0.661 ± 0.025.
In the case of STIIKLCDCYKM, the protein stability index worked out at 0.7 ± 0.11.
Regarding STLPPPSSPFHP, the protein stability index was found to be 0.96 ± 0.021.
For STLPTHQLPPHS, the protein stability index is 0.624 ± 0.022.
Take STLRFGVSLWLP: the protein stability index came out at 0.712 ± 0.03.
Sequence STLTPLPLRASA came in with a protein stability index of 0.5333 ± 0.005.
STLVIPFPPFHF showed a protein stability index of 0.7 ± 0.018.
Turning to STLYLKRKKIKK, the protein stability index is 0.696 ± 0.033.
Regarding STNARRLWGRGV, the protein stability index turned out to be 0.699 ± 0.033.
STPPPHSPLPPP yielded a protein stability index of 0.689 ± 0.066.
As to STRERPDRHAVS, the protein stability index came out at 0.676 ± 0.016.
In turn, STSPRSAFSPLT had a protein stability index of 0.619 ± 0.011.
Sequence STVPGRPKLTLV yielded a protein stability index of 0.578 ± 0.032.
As to SVALGRQGTPNI, the protein stability index came out at 0.6506 ± 0.0064.
In turn, SVALPLRQTPLH had a protein stability index of 0.667 ± 0.047.
On to SVAPAPYQTAKQ, for which the protein stability index worked out at 0.744 ± 0.032.
SVCRVSVKKECR: the protein stability index turned out to be 0.701 ± 0.12.
For SVCSRVLILSPF, the protein stability index was 0.657 ± 0.068.
SVDPIFLNSGLG displayed a protein stability index of 0.693 ± 0.045.
On to SVFPHPYMVVRS, for which the protein stability index came to 0.598 ± 0.0092.
In the case of SVGPVGASIGGG, the protein stability index is 0.6668 ± 0.0032.
On to SVHPVNRDPSRH, for which the protein stability index came out at 0.6904 ± 0.0014.
With SVINMLKPCNVI, the protein stability index came to 0.647 ± 0.05.
For SVLVTRILKFFL the value was 0.558 ± 0.068.
On to SVMMGVWWSGYR, for which the protein stability index came out at 0.709 ± 0.13.
On to SVNGTGGGVVDL, for which the protein stability index came out at 0.638 ± 0.12.
As for SVPFPTEYLVVD, the protein stability index turned out to be 0.681 ± 0.075.
Regarding SVPNYDAVGAGD, the protein stability index was 0.667 ± 0.097.
On to SVPRPLSRPPFL, for which the protein stability index was determined as 0.697 ± 0.086.
The sequence SVPVLLLSILSP gave a protein stability index of 0.542 ± 0.013.
In turn, SVSGPAPPSMSS registered a protein stability index of 0.618 ± 0.12.
SVSGTPLRALLH gave a protein stability index of 0.622 ± 0.01.
Turning to SVSPSPPSPHLR, the protein stability index was found to be 0.688 ± 0.011.
For the sequence SVTSKDEYDLEE, the protein stability index was found to be 0.694 ± 0.043.
In the case of SVVGEKAALMGV, the protein stability index worked out at 0.662 ± 0.014.
For SWGACVDYLGWS the value was 0.754 ± 0.03; for SWGDVGSWLGGV, 0.663 ± 0.0068; for SWGLGWIARRRT, 0.684 ± 0.052.
For SWLGGIGGNEMV the value was 0.726 ± 0.011; for SWLKRNLFPVAI, 0.596 ± 0.018.
For SWVDVGSWLGGV the value was 0.7108 ± 0.0043; for SWVGHGIPPWHM, 0.729 ± 0.027.
In turn, SWVSQFLVFWPV returned a protein stability index of 0.716 ± 0.044.
SWVSSGTVILQE: the protein stability index was found to be 0.74 ± 0.077.
Sequence SWYSLVWTSSER gave a protein stability index of 0.695 ± 0.054.
The sequence SYCRPPPLPGLP showed a protein stability index of 0.628 ± 0.038.
The sequence SYETLRTPARIA displayed a protein stability index of 0.583 ± 0.043.
For SYLMVATRFGEN the value was 0.741 ± 0.067; for SYMLEGVEGVGE, 0.736 ± 0.086.
In the case of SYPPLLPQLPPP, the protein stability index amounted to 0.678 ± 0.062.
The sequence SYPRATPPWMAG had a protein stability index of 0.727 ± 0.092.
Sequence SYQPQLDSKRVG showed a protein stability index of 0.63 ± 0.019.
For SYRNRTEHPKLP, the protein stability index amounted to 0.74 ± 0.036.
In turn, SYSGLLEALTTL registered a protein stability index of 0.737 ± 0.032.
For SYSLGAGVCGVW, the protein stability index turned out to be 0.682 ± 0.058.
In turn, TANRVDDSILSS showed a protein stability index of 0.671 ± 0.024.
Turning to TARRGAARSSQL, the protein stability index is 0.695 ± 0.017.
TASPPLHSFLGS came in with a protein stability index of 0.679 ± 0.034.
TAYNVTLVIARG: the protein stability index was found to be 0.468 ± 0.094.
Regarding TCAGTGSTHLSR, the protein stability index amounted to 0.688 ± 0.035.
Regarding TCPLSFFLSFLF, the protein stability index was 0.565 ± 0.037.
TCTDTCIRGSRL had a protein stability index of 0.77 ± 0.033.
The sequence TCTGAKHRCHVL yielded a protein stability index of 0.677 ± 0.011.
TDWCSYWSGWVV came in with a protein stability index of 0.722 ± 0.019.
Sequence TEFFVFNRTQSL had a protein stability index of 0.671 ± 0.088.
Sequence TEGGSSKPSSNP yielded a protein stability index of 0.704 ± 0.089.
In turn, TEKTHRTTIVNN registered a protein stability index of 0.7254 ± 0.0061.
On to TESGWMGRGFMR, for which the protein stability index was found to be 0.656 ± 0.088.
For TEVSAPAPPCLW the value was 0.6371 ± 0.0058.
TEYCSRHDTATK gave a protein stability index of 0.728 ± 0.0096.
TFRHLRPPLRSR: the protein stability index is 0.649 ± 0.037.
In the case of TFSGWYIQGQIV, the protein stability index is 0.702 ± 0.16.
TFSWISGKPRHT displayed a protein stability index of 0.679 ± 0.041.
TGEVPPPRCEGE showed a protein stability index of 0.638 ± 0.014.
For TGGRRKNCIIKK the value was 0.688 ± 0.062.
TGKIRWIPAIRS: the protein stability index was 0.64 ± 0.039.
As to TGLYWGQIPYSQ, the protein stability index came out at 0.687 ± 0.062.
For TGPSLDRALLDL the value was 0.6412 ± 0.002.
